Measurements published in patent publication US20250066451A1.

Experiments:
[1] = target: IL-1R-I on cells (TF-1 cells, NHDF cells, human whole blood) (human) (UniProt P14778); test: cell-based or functional assay
[2] = target: human IL-1R-I on Normal Human Dermal Fibroblasts (NHDF) cells (human) (UniProt P14778); test: cell-based or functional assay
human IL-1R-I on Normal Human Dermal Fibroblasts (NHDF) cells (human), sequence (P14778 18-569): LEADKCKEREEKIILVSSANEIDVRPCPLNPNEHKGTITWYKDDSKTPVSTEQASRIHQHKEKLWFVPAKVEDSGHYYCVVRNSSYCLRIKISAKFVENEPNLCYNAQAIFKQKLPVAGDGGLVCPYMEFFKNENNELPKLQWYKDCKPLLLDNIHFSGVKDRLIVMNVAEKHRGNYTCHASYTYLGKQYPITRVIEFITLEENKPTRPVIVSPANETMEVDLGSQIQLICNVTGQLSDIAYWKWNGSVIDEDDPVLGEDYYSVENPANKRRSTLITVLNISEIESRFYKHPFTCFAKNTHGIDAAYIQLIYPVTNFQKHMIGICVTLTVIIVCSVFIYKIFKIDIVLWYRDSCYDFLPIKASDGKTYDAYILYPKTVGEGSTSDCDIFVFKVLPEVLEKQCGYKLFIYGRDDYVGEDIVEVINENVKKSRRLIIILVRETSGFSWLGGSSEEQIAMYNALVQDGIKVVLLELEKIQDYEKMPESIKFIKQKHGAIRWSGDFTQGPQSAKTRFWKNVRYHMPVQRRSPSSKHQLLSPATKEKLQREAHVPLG

IL-1R-I on cells (TF-1 cells, NHDF cells, human whole blood) (human), sequence (P14778 18-569): as above

IC50, inhibition of IL-1B induced proliferation of TF-1 cells [1]	median IC50, IL-1B induced IL-6 release in human whole blood [1]	median IC50, IL-1B induced IL-6 release in human whole blood (legend of FIG. 3) [1]	IC50 (pM), inhibition of IL-1B induced IL-6 release in NHDF cells [2]	Substance
0.05 nM	0.31 nM	0.3 nM		anakinra (Kineret, Sobi) (from UniProt P18510 26-177) (ligand)
			70 pM	anakinra (from UniProt P18510 26-177) (ligand)
